Measurements published in paper PMC5819227.

Biological target: Enc-I3-01-MhIHL-V54L (engineered ketohydroxyglutarate aldolase from T. maritima fused at its C terminus to the (+)-γ-lactamase mutant MhIHL-V54L from Microbacterium hydrocarbonoxydans) (Thermotoga maritima | Microbacterium hydrocarbonoxydans)
Experiment: negative-stain transmission electron microscopy; purified protein at 1.33 mg/mL adsorbed onto copper grids, stained with 3% uranyl acetate

stoichiometry N: 60 subunits
Substance: Enc-I3-01-MhIHL-V54L (engineered ketohydroxyglutarate aldolase from T. maritima fused at its C terminus to the (+)-γ-lactamase mutant MhIHL-V54L from Microbacterium hydrocarbonoxydans)
